Biological target: the molecule itself
Experiment: SEC; Superdex200 Increase on an AKTA FPLC after IMAC; uncut His-SUMOstar-LOR; elution compared with the expected tetrameric size and the aggregation peak

B1: 2-aminoadipic semialdehyde synthase (AASS) lysine 2-oxoglutarate reductase (LOR) domain, p.T371I variant, His-SUMOstar-LOR [residues 21-470] (domain or fragment, human, UniProt Q9UDR5 21-470, looked up)
chain: HHKAVLAVRREDVNAWERRAPLAPKHIKGITNLGYKVLIQPSNRRAIHDKDYVKAGGILQEDISEACLILGVKRPPEEKLMSRKTYAFFSHTIKAQEANMGLLDEILKQEIRLIDYEKMVDHRGVRVVAFGQWAGVAGMINILHGMGLRLLALGHHTPFMHIGMAHNYRNSSQAVQAVRDAGYEISLGLMPKSIGPLTFVFTGTGNVSKGAQAIFNELPCEYVEPHELKEVSQTGDLRKVYGTVLSRHHHLVRKTDAVYDPAEYDKHPERYISRFNTDIAPYTTCLINGIYWEQNTPRLLTRQDAQSLLAPGKFSPAGVEGCPALPHKLVAICDISADTGGSIEFMTECTIIEHPFCMYDADQHIIHDSVEGSGILMCSIDNLPAQLPIEATECFGDMLYPYVEEMILSDATQPLESQNFSPVVRDAVITSNGTLPDKYKYIQTLRESRE
notes: 2-aminoadipic semialdehyde synthase (AASS), LOR domain, residues 21-470, patient variant c.1112C>T (p.T371I); Purified as uncut SUMOstar-LOR; calculated MW of the His-SUMOstar-LOR monomer is 62.4 kD; PDB 8E8U is the wild-type LOR structure (cited); also called I371 variant; LOR variant; source: E. coli LOBSTR cells, purified (IMAC, size-exclusion chromatography on Superdex200 Increase); not …
  binding result: binds

From PMC10623103, “A case of hyperlysinemia identified by urine newborn screening” (JIMD Reports, 2023)
